In EP2767548A2 (Argen-X B.V., dated 2014):

Target: Human CD16 (biotinylated, Sino Biological Inc, cat#10389-H27H1-B) (human, UniProt P08637 17-208, biotinylated)
Test: ELISA, biotinylated CD16 captured on neutravidin, anti-human Fab-HRP detection

Human CD16 (biotinylated, Sino Biological Inc, cat#10389-H27H1-B), sequence (P08637 17-208): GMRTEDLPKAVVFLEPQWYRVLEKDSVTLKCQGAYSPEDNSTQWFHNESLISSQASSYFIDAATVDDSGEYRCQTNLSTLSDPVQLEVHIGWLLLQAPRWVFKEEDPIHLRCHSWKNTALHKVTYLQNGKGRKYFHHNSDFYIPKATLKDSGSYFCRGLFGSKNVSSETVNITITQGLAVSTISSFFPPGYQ

B1: IgG3-MAB1 (antibody)
chain 1: QLLLQESGPGLVKPSETLSLTCTVSGGSLSSSFSYWVWIRQPPGKGLEWIGTIYYSGNTYYNPSLKSRLTISVDTSKNHFSLKLSSVTAADTAVYYCARRAGILTGYLDSWGQGTLVTVSS
chain 2: SYVLTQSPSVSVAPGQTARITCGGNNIGSKSVHWYQQKPGQAPVLVVYDDSDRPSGIPERFSASNSGNTATLTISRVEAGDEADYYCQVWDSSSDHVVFGGGTKLTVL
EC50: 3.58 µg/mL
